Measurements taken from PMC7404038, “Chaperone-Like Activity of HSPB5: The Effects of Quaternary Structure Dynamics and Crowding” (International Journal of Molecular Sciences, 2020).

B1: glycogen phosphorylase b from rabbit skeletal muscles (enzyme, UniProt P00489 1-843, looked up)
chain: MSRPLSDQEKRKQISVRGLAGVENVTELKKNFNRHLHFTLVKDRNVATPRDYYFALAHTVRDHLVGRWIRTQQHYYEKDPKRIYYLSLEFYMGRTLQNTMVNLALENACDEATYQLGLDMEELEEIEEDAGLGNGGLGRLAACFLDSMATLGLAAYGYGIRYEFGIFNQKICGGWQMEEADDWLRYGNPWEKARPEFTLPVHFYGRVEHTSQGAKWVDTQVVLAMPYDTPVPGYRNNVVNTMRLWSAKAPNDFNLKDFNVGGYIQAVLDRNLAENISRVLYPNDNFFEGKELRLKQEYFVVAATLQDIIRRFKSSKFGCRDPVRTNFDAFPDKVAIQLNDTHPSLAIPELMRVLVDLERLDWDKAWEVTVKTCAYTNHTVLPEALERWPVHLLETLLPRHLQIIYEINQRFLNRVAAAFPGDVDRLRRMSLVEEGAVKRINMAHLCIAGSHAVNGVARIHSEILKKTIFKDFYELEPHKFQNKTNGITPRRWLVLCNPGLAEIIAERIGEEYISDLDQLRKLLSYVDDEAFIRDVAKVKQENKLKFAAYLEREYKVHINPNSLFDVQVKRIHEYKRQLLNCLHVITLYNRIKKEPNKFVVPRTVMIGGKAAPGYHMAKMIIKLITAIGDVVNHDPVVGDRLRVIFLENYRVSLAEKVIPAADLSEQISTAGTEASGTGNMKFMLNGALTIGTMDGANVEMAEEAGEENFFIFGMRVEDVDRLDQRGYNAQEYYDRIPELRQIIEQLSSGFFSPKQPDLFKDIVNMLMHHDRFKVFADYEEYVKCQERVSALYKNPREWTRMVIRNIATSGKFSSDRTIAQYAREIWGVEPSRQRLPAPDEKIP
notes: glycogen phosphorylase, muscle form, b form, rabbit; subunit 97.4 kDa as printed; In the assays partially unfolded by heating at 48 °C; also called Phb; muscle glycogen phosphorylase b
B2: Human full-length untagged HSPB5 (αB-crystallin) (natural protein, UniProt P02511 1-175, looked up)
chain: MDIAIHHPWIRRPFFPFHSPSRLFDQFFGEHLLESDLFPTSTSLSPFYLRPPSFLRAPSWFDTGLSEMRLEKDRFSVNLDVKHFSPEELKVKVLGDVIEVHGKHEERQDEHGFISREFHRKYRIPADVDPLTITSSLSSDGVLTVNGPRKQVSGPERTIPITREEKPAVTAAPKK
notes: αB-crystallin (HSPB5), human, full length, untagged; subunit mass 20.2 kDa as printed; Polydisperse oligomer whose size depends on concentration, temperature and crowding; the preparation was a gift of N. Sluchanko; also called the chaperone; source: expressed and purified as described earlier [104]

How the values were obtained:
[1] = target: the molecule itself; test: AUC; sedimentation velocity, Phb 0.5 mg/mL with HSPB5 0, 0.025 or 0.075 mg/mL, 30 mM Hepes, pH 6.8, 0.1 M NaCl, 0.2 mM EDTA, 48 °C, 48,000 rpm; masses by the Svedberg equation with diffusion coefficients from DLS
[2] = target: the molecule itself; test: AUC; sedimentation velocity, Phb 0.4 mg/mL, HSPB5 0.26 mg/mL and their mixture, Hepes buffer with PEG 20 kDa 25 mg/mL and PVP 25 kDa 12.5 mg/mL (mixed crowding), 48 °C, 48,000 rpm
[3] = target: B1; test: cell-based or functional assay
[4] = target: T1, Ca2+-depleted α-lactalbumin (UniProt P00711 20-142); test: cell-based or functional assay
T1 sequence (looked up): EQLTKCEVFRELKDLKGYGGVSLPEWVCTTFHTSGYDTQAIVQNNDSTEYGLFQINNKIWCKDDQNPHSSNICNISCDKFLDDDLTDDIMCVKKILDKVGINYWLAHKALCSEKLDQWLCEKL

Binder	stoichiometry N [1]	binding result [2]	stoichiometry S0 of the chaperone-target protein complex from suppression of thermal aggregation of Phb at 48 °C (DLS; Kagg/Kagg,0 = 1 − x/S0) [3]	initial stoichiometry S0 of the HSPB5-αLa complexes from suppression of DTT-induced aggregation of αLa at 37 °C (DLS; (Kagg/Kagg,0)^1/b versus [HSPB5]/[αLa]) [4]
B1	2			
B2		binds	0.31 HSPB5 subunits per Phb monomer (molar ratio)	0.011 HSPB5 subunits per αLa molecule (molar ratio)
